Measurements taken from patent publication US20250270315A1 (ELPISCIENCE SUZHOU BIOPHARMA, published 2025).

T1: C57BL/6 mouse SIRPα stably expressed on CHOK1 cells (C57BL/6 mouse, UniProt P97797 32-513)
T1 construct: whole, on cells; also called CHOK1-C57BL/6 mouse SIRPα
T1 sequence (looked up): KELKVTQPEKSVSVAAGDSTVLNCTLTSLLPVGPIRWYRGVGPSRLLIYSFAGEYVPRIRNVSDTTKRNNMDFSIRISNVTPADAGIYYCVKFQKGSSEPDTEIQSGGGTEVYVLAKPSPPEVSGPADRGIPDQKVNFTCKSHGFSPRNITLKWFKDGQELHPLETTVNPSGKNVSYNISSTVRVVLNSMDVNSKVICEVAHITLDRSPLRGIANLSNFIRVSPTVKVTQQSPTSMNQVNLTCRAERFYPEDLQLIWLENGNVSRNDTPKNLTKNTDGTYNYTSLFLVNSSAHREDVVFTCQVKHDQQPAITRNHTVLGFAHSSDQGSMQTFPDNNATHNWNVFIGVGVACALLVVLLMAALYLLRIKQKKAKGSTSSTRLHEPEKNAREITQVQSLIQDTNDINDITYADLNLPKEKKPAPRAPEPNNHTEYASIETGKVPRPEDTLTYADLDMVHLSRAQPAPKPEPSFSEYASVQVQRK


Columns and labels:
[1] = molecular target: full length human SIRPα v1 with a small beta-gal fragment (ED) fused to its C-terminal, expressed in K562 … (human, UniProt P78324 31-504); assay: cell-based or functional assay
Sequence of full length human SIRPα v1 with a small beta-gal fragment (ED) fused to its C-terminal, expressed in K562 … (P78324 31-504): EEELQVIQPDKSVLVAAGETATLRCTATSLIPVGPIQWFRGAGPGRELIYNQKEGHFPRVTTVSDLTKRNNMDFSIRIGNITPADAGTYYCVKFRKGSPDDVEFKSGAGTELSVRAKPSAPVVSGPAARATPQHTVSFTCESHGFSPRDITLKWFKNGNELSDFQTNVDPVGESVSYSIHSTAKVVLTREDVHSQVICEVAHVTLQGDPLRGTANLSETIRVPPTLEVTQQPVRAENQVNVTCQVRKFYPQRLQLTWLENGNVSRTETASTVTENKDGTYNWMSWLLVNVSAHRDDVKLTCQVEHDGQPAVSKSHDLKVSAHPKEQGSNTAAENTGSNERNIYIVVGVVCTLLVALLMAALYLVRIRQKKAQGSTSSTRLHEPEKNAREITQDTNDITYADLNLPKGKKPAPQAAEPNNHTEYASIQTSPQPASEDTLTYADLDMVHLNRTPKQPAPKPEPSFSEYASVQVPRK

[2] = molecular target: T2, Fc tagged human SIRPα v2 ECD recombinant protein (human); assay: ELISA, coated Fc tagged human SIRPα v2 ECD
T2 construct: range 1-369; also called hFc tagged human SIRPα v2 ECD
Method: (§1) Binding specificity of the purified hybridoma antibodies against human SIRPα variants was detected by ELISA assay using recombinant proteins of Fc tagged human SIRPα v1 ECD and human SIRPα v2 ECD. Briefly the antibodies were incubated with ELISA microplate coated antigens at 37° C. for 1 hour. After washing, horseradish peroxidase (HRP) labeled anti-mouse IgG 2nd Ab (Sigma) was added and incubated at 37° C. for 1 hour. Then, 100 μl/well of TMB solution (Biotechnology) was added. After incubation for 15 minutes at room temperature, the reaction was stopped by the addition of 50 ul of 1N HCl. OD 450 nm was read and EC₅₀ was calculated using GraphPad Prism9.0. Other than HEFLB, all antibodies as tested bind to both human SIRPα v1 and human SIRPα v2. HEFLB can only bind to human SIRPα v1 but not human SIRPα v2.

[3] = molecular target: T1, C57BL/6 mouse SIRPα stably expressed on …; assay: FACS, CHOK1-C57BL/6 mouse SIRPα cells, MFI at 100 nM
Method: (§2) Species cross reactivity of the purified hybridoma antibodies against human, cyno and mouse SIRPα was determined by FACS assay using CHOK1 cells stably expressing human SIRPα v1, CHOK 1-cyno SIRPα and C57BL/6 mouse SIRPα. Briefly the antibodies were incubated with 2×10⁵ target cells at 4° C. for 1 hour. After washing, fluorescence labeled anti-mouse IgG 2nd antibody (Life Technologies) was added and incubated at 4° C. for 1 hour. Geometric median fluorescence intensity was detected and EC₅₀ was calculated using GraphPad Prism9.0. Other than HEFLB, all antibodies as tested can bind to cyno SIRPα. None of tested antibodies can bind to C57BL/6 mouse SIRPα.

[4] = molecular target: T3, human SIRPα v1 ECD recombinant protein (tag not given) (human, UniProt P78324 31-373); assay: competitive ELISA, biotin human SIRPα v1 ECD on coated human CD47 ECD
T3 construct: extracellular domain; also called biotin labeled soluble human SIRPα v1 ECD recombinant protein; ELISA microplate coated human SIRPα v1 ECD
T3 sequence (P78324 31-373): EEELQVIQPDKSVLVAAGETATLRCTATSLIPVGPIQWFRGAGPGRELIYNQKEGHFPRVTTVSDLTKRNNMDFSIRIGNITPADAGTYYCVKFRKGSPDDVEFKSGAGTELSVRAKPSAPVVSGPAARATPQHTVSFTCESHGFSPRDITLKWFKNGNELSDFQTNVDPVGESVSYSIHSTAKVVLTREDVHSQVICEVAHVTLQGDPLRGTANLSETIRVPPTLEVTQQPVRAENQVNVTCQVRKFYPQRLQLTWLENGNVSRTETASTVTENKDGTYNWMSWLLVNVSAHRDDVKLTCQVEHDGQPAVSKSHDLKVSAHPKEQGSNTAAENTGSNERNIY
Method: Competitive ELISA assay was used to determine whether the purified hybridoma antibodies can block CD47 and SIRPα interaction. Briefly, antibody and biotin labeled soluble human SIRPα v1 ECD recombinant protein were co-incubated with ELISA microplate coated human CD47 ECD recombinant protein. After washing, HRP labeled streptavidin (HRP-SA, Sigma) was added and incubated at 37° C. for 1 hour. Then, 100 μl/well of TMB solution (Biotechnology) was added. After incubation for 15 minutes at room temperature, the reaction was stopped by the addition of 50 μl of 1N HCl. OD 450 nm was read. The blocking ratios were determined by blockade of biotin labeled human SIRPα v1 ECD recombinant protein binding to ELISA microplate coated human CD47 ECD recombinant protein. Other than 005, all antibodies as tested can block human CD47 and human SIRPα v1 interaction.

[5] = molecular target: T4, full length human SIRPα v1 stably expressed on CHOK1 or 293F cells (human, UniProt P78324 31-504); assay: FACS, CHOK1-human SIRPα v1 cells
T4 construct: whole, on cells; also called CHOK1-human SIRPα v1; CHOK1-hSIRPα v1
T4 sequence (P78324 31-504): as the sequence (P78324 31-504) above
Method: as §2

[6] = molecular target: T5, Fc tagged human SIRPα v1 ECD recombinant protein (human, UniProt P78324 31-370); assay: ELISA, coated Fc tagged human SIRPα v1 ECD
T5 construct: range 1-370; also called hFc tagged human SIRPα v1 ECD; not shown: human IgG Fc (hFc) tag
T5 sequence (P78324 31-370 limits assumed): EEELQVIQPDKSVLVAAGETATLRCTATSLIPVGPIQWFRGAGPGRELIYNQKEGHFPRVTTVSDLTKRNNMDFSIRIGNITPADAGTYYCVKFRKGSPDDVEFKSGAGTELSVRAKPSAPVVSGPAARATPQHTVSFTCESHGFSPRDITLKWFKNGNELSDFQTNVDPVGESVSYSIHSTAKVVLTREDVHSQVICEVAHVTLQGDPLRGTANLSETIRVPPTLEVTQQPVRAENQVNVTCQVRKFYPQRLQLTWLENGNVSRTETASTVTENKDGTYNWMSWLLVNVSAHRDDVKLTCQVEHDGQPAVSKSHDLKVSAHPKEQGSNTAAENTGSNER
Method: as §1

[7] = molecular target: T4, full length human SIRPα v1 stably …; assay: competitive FACS, mFc-CD47 ECD on CHOK1-human SIRPα v1 cells
Method: Competitive FACS assay was also set up to further compare the blocking activity of the humanized antibodies and reference antibodies. Briefly antibody and mFc tagged human CD47 ECD recombinant protein were co-incubated with CHOK1 cells stably expressing human SIRPα v1 (FIG. 16A) or human SIRPα v2 (FIG. 16B). After washing, dye labeled anti-mouse Fc 2nd antibody (Sigma) was added and incubated at 37° C. for 1 hour. Fluorescence intensity was detected. Blocking ratio was determined by blockade of human CD47 ECD recombinant protein binding to SIRPα expressed CHOK1 cells. […] In particular, HEFLB doesn't work at all for human SIRPα v2.

SHP-1 recruitment (% blocking), Test I [1] [%] | SHP-1 recruitment (% blocking), Test II [1] [%] | EC50 [2] [nM] | binding result [3] | IC50 [4] [nM] | EC50 [5] [nM] | EC50 [6] [nM] | IC50 [7] [nM] | TOP blocking (%) [7] [%] | Binder
83.6 | 89.6 | 0.15 | no binding (tested: 100 nM) | 0.3 | 1 | 0.1 | – | – | 015 (antibody, V domains shown, Mouse monoclonal hybridoma antibody; also called antibody 015; hybridoma antibody 015) VH: EVQLQQSGVEVVQPGASVKLSCTASGFNIEAYYMHWVKQRTEQGLEWIGRIDPEDGESKYAPKFQGKATMTADTSSSTAYLQLSSLTSDDTAVYYCVRGSYEYWGQGTTLTVSS VL: QIVLTQSPAIMSASPGEKVTLTCSASSSVSSSYLYWYQQKPGSSPKLWIYSTSNLASGVPPRFSGSGSGTSYSLTISSMQAEDAASYFCYQWSSYPYTFGGGTKLEIK
83.9 | 91.2 | 0.06 | no binding (tested: 100 nM) | 0.15 | 0.9 | 0.04 | – | – | 025 (antibody, V domains shown, Mouse monoclonal hybridoma antibody; also called antibody 025; hybridoma antibody 025) VH: EVQLQQSGAELVKPGASVKLSCTASGFNIKDYYMHWVKQRTEQGLEWIGRIDPEDGETKYAPKFQGKATITADTSSNTAYLQLSSLTSEDTAVYYCDRGLAYWGQGTLVTVSA VL: QIVLTQSPAIMSASPGEKVTLTCSASSSVSSSYLYWYQQKPGSSPKLWIYSTSNLASGVPARFSGSGSGTSYSLTISSMEAEDAASYFCHQWSSYPYTFGGGTKLEIK
46.8 | 50.3 | – | no binding (tested: 100 nM) | 0.5 | 11.2 | 0.17 | 0.94 | 97.6 | HEFLB (antibody, V domains shown) VH: EVQLVQSGAEVKKPGESLRISCKASGYSFTSYWVHWVRQMPGKGLEWMGNIDPSDSDTHYSPSFQGHVTLSVDKSISTAYLQLSSLKASDTAMYYCVRGGTGTLAYFAYWGQGTLVTVSS VL: DVVMTQSPLSLPVTLGQPASISCRSSQSLVHSYGNTYLYWFQQRPGQSPRLLIYRVSNRFSGVPDRFSGSGSGTDFTLKISRVEAEDVGVYYCFQGTHVPYTFGGGTKVEIK
71 | 82.7 | 0.12 | no binding (tested: 100 nM) | – | 1.8 | 0.13 | – | – | 005 (antibody, V domains shown, Mouse monoclonal hybridoma antibody purified on Protein A; also called antibody 005; hybridoma antibody 005) VH: EVKLVESGGGLVQPGGSLSLSCAASGFTFTDYYMSWVRQPPGKALEWLGFIKNEANGYTTESSASVKGRFTISRDNSQSILYLQMNALRAEDSATYYCARYDYYGSNYNWYFDAWGTGTTVTVSS VL: DIVMTQSQKFMSPSVGDRVSITCKASQNVRTAVAWYQQKPGQSPKVLIHLASKRHTGVPDRFTGSGSGTDFTLTISNVQSEDLADYFCLQHWIHPLTFGAGTKLELK
77.5 | 80.2 | 0.1 | no binding (tested: 100 nM) | 0.12 | 0.1 | 0.03 | – | – | 059 (antibody, V domains shown, Mouse monoclonal hybridoma antibody; also called antibody 059; hybridoma antibody 059) VH: QVQLQQSGPELVKPGASVKMSCKASGYTFSEYVLSWVKQRTGQGLEWIGEIYPGTITTYYNEKFKGKATLTADKSSNTAYIQLTSLTSEDSAVYFCGRFYDYDGGWFAYWGQGTLLTVSA VL: ENVLTQSPEKMAVSLGQKVTMTCSASSSVSSSDLHWYQQKSGASPKPLIHGTSNLASGVPARFSGSGSGTSYSLTISSVEAEDAATYYCQQWSGYPWTFGGGTNLEIK
77.2 | 72.6 | 0.02 | no binding (tested: 100 nM) | 0.17 | 0.2 | 0.03 | – | – | 071 (antibody, V domains shown, Mouse monoclonal hybridoma antibody; also called antibody 071; hybridoma antibody 071) VH: QIQLVQSGPELKKPGETVKISCKASGYTFTTYGMSWVKQAPGKGLKWMVWINTYSGVPTYADDFQGRFAFSLETSASTSYLQINNLRNEDTATYFCARDPHYYGTSPAWFAYWGQGTLVTVSA VL: DIVMTQSQKFMSTTIGDRVIITCKASQIVGIAVAWYQQKPGQSPKLLIYSASNRFTGVPDRFTGSGSGTDFTLTISNMQSEDLADYFCQQYSTYPFTFGSGTKLEIK
84.8 | 76.1 | 0.03 | no binding (tested: 100 nM) | 0.14 | 0.2 | 0.03 | – | – | 042 (antibody, V domains shown, Mouse monoclonal hybridoma antibody; also called antibody 042; hybridoma antibody 042) VH: QIQLVQSGPELKKPGETVKISCRASGYTFTTYGMSWVKQAPGKGLRWMGWINTYSGVSTCADDFKGRFAFSLETSATTAYLQIHNLTNEDTATYFCARDPHSYGNSPAWFPYWGQGTLVTVSA VL: DIVMTQSQKFMSTTIRDRVSITCKASQNVGISVAWYQQKSGQSPKLLIYSASNRYTGVPDRFTGSGSGTDFTLTISNMQSEDLADYFCQQYSSYPLTFGSGTKLAIK
76.9 | 75.9 | 0.03 | no binding (tested: 100 nM) | 0.16 | 0.2 | 0.03 | – | – | 073 (antibody, V domains shown, Mouse monoclonal hybridoma antibody; also called antibody 073; hybridoma antibody 073) VH: QIQLVQSGPELKKPGETVKISCKASGYTFTTYGMSWVKQAPGKGLKWMVWINTYSGVPTYADDFKGRFAFSLETSASTSYLQINNLKNEDTATYFCARDPHYYGSSPAWFVYWGQGTLVTVSA VL: DIVMTQSQKFMSTTIGDRVSITCEASQIVGIAVAWYQQKPGQSPKLLIYSASNRYTGVPDRFTGSGSGTDFTLTISNMQSEDLANYFCQQYSAYPFTFGSGTKLEVK
